In PMC8930183, “Structure of the Pf12 and Pf41 heterodimeric complex of Plasmodium falciparum 6-cysteine proteins” (FEMS Microbes, 2022) one finds percent of parent data, which are given here for 18 variants.

B1: Pf41 D1D2 (residues 21-368), untagged [Plasmodium falciparum] / octa-histidine tagged Pf12 D1D2 (residues 28-304) [Plasmodium falciparum] (parent complex)
chain 1: KSHKCDFTKEKYLLSGEKEVSCEIDANPSDDITFICPNKIDSLCFHTVNISKNINQNKSTMSIQDLLYGSVVYGNTLFISPYVRTNTPFYCFCNLDTVTIQKFLKINRFLKDDDELSEADVMKHLKGGNVSEAQADEYLNKALNRFKKMKDLSKFFNDQADNTTKLNLPKSLNIPNDILNYDVYNSSNNRNDIVVKDEVTNKQIISKRGIMSVFVRSNNNVIKGCDFGNNNKNYFSHPISVAGKVNNKVCKIQGKPGELVGFKCAFEENGKVEPPNCFDQVLHKNKVTDLKTLIPGYASYTNKHSSKYPYYLKIPHFVNEQYTIQCKCKSNNSQNEYTFELDIQPGES
chain 2: NLTCDFNDVYKLEFHPNQQTSVTKLCNLTPNVLEKVTIKCGSDKLNYNLYPPTCFEEVYASRNMMHLKKIKEFVIGSSMFMRRSLTPNKINEVSFRIPPNMMPEKPIYCFCENKKTITINGSNGNPSSKKDIINRGIVEIIIPSLNEKVKGCDFTTSESTIFSKGYSINEISNKSSNNQQDIVCTVKAHANDLIGFKCPSNYSVEPHDCFVSAFNLSGKNENLENKLKLTNIIMDHYNNTFYSRLPSLISDNWKFFCVCSKDNEKKLVFTVEASISS
B2: Pf12 D1D2 (residues 28-304), untagged [Plasmodium falciparum] / octa-histidine tagged Pf41 D1D2 (residues 21-368) [Plasmodium falciparum] (parent complex)
chain 1: B1 chain 2
chain 2: B1 chain 1

In the first assay the parent is B1. In words: BLI; mutant at 1000 nM, 500 nM, and 250 nM; binding to immobilised WT Pf12; parent: 100; read off a plot.
Take chain 1 KSHKCDFTKEKYLLSGEKEVSCEIDANPSDDITFICPNKIDSLCFHTVNISKNINQNKSTMSIQDLLYGSVVYGNTLFISPYVRTNTPFYCFCNLDTVTIQKFLKINRFLKDDDELSEADVMKHLKGGNVSEAQADEYLNKALNRFKKMKDLSKFFNDQADNTTKLNLPKSLNIPNDILNYDVYNSSNNRNDIVVKDEVTNKQIISKRGIMSVFVRSNNNVIKGCDFGNNNKNYFSHPISVAGKVNNKVCKIQGKPGELVGFKCAFEENGKVEPPNCFDQVLHKNKVTDLKTLIPGYASYTNKHSSKYPYYLKIPHFVNEQYTIQCKCKSNNSQNEYTFELDIQPGAS [chain 1 E347A]: the percent of parent is around 18 % WT.

With chain 1 KSHKCDFTKEKYLLSGEKEVSCEIDANPSDDITFICPNKIDSLCFHTVNISKNINQNKSTMSIQDLLYGSVVYGNTLFISPYVRTNTPFYCFCNLDTVTIQKFLKINRFLKDDDELSEADVMKHLKGGNVSEAQADEYANKALNRFKKMKDLSKFFNDQADNTTKLNLPKSLNIPNDILNYDVYNSSNNRNDIVVKDEVTNKQIISKRGIMSVFVRSNNNVIKGCDFGNNNKNYFSHPISVAGKVNNKVCKIQGKPGELVGFKCAFEENGKVEPPNCFDQVLHKNKVTDLKTLIPGYASYTNKHSSKYPYYLKIPHFVNEQYTIQCKCKSNNSQNEYTFELDIQPGES [chain 1 L139A], the percent of parent is around 4 % WT.

Take chain 1 KSHKCDFTKEKYLLSGEKEVSCEIDANPSDDITFICPNKIDSLCFHTVNISKNINQNKSTMSIQDLLYGSVVYGNTLFISPYVRTNTPFYCFCNLDTVTIQKFLKINRFLKDDDELSEADVMKHLKGGNVSEAQADEYLNKALNRAKKMKDLSKFFNDQADNTTKLNLPKSLNIPNDILNYDVYNSSNNRNDIVVKDEVTNKQIISKRGIMSVFVRSNNNVIKGCDFGNNNKNYFSHPISVAGKVNNKVCKIQGKPGELVGFKCAFEENGKVEPPNCFDQVLHKNKVTDLKTLIPGYASYTNKHSSKYPYYLKIPHFVNEQYTIQCKCKSNNSQNEYTFELDIQPGES [chain 1 F146A]: the percent of parent is around 37 % WT.

Take chain 1 KSHKCDFTKEKYLLSGEKEVSCEIDANPSDDITFICPNKIDSLCFHTVNISKNINQNKSTMSIQDLLYGSVVYGNTLFISPYVRTNTPFYCFCNLDTVTIQKFLKINRFLKDDDELSEADVMKHLKGGNVSEAQADEYLNKALNRLKKMKDLSKFFNDQADNTTKLNLPKSLNIPNDILNYDVYNSSNNRNDIVVKDEVTNKQIISKRGIMSVFVRSNNNVIKGCDFGNNNKNYFSHPISVAGKVNNKVCKIQGKPGELVGFKCAFEENGKVEPPNCFDQVLHKNKVTDLKTLIPGYASYTNKHSSKYPYYLKIPHFVNEQYTIQCKCKSNNSQNEYTFELDIQPGES [chain 1 F146L]: the percent of parent was around 122 % WT.

On to chain 1 KSHKCDFTKEKYLLSGEKEVSCEIDANPSDDITFICPNKIDSLCFHTVNISKNINQNKSTMSIQDLLYGSVVYGNTLFISPYVRTNTPFYCFCNLDTVTIQKFLKINRFLKDDDELSEADVMKHLKGGNVSEAQADEYLNKALNRFKKMKDLSKFFNDQADNTTKLNLPKSLNIPNDILNYDVYNSSNNRNDIVVKDEVTNKQIISKRGIMSVFVRSNNNVIKGCDFGNNNKNYFSHPISVAGKVNNKVCKIQGKPGELVGFKCAFEENGKVEPPNCFDQVLHKNKVTDLKTLIPGYASYTNKHSSKYPYYLKIPHAVNEQYTIQCKCKSNNSQNEYTFELDIQPGES [chain 1 F317A], for which the percent of parent is around 1 % WT.

For the variant chain 1 KSHKCDFTKEKYLLSGEKEVSCEIDANPSDDITFICPNKIDSLCFHTVNISKNINQNKSTMSIQDLLYGSVVYGNTLFISPYVRTNTPFYCFCNLDTVTIQKFLKINRFLKDDDELSEADVMKHLKGGNVSEAQADEYLNKALNRFKKMKDLSKFFNDQADNTTKLNLPKSLNIPNDILNYDVYNSSNNRNDIVVKDEVTNKQIISKRGIMSVFVRSNNNVIKGCDFGNNNKNYFSHPISVAGKVNNKVCKIQGKPGELVGFKCAFEENGKVEPPNCFDQVLHKNKVTDLKTLIPGYASYTNKHSSKYPYYLKIPHFVAEQYTIQCKCKSNNSQNEYTFELDIQPGES [chain 1 N319A], the percent of parent is around 36 % WT.

On to chain 1 KSHKCDFTKEKYLLSGEKEVSCEIDANPSDDITFICPNKIDSLCFHTVNISKNINQNKSTMSIQDLLYGSVVYGNTLFISPYVRTNTPFYCFCNLDTVTIQKFLKINRFLKDDDELSEADVMKHLKGGNVSEAQADEYLNKAANRFKKMKDLSKFFNDQADNTTKLNLPKSLNIPNDILNYDVYNSSNNRNDIVVKDEVTNKQIISKRGIMSVFVRSNNNVIKGCDFGNNNKNYFSHPISVAGKVNNKVCKIQGKPGELVGFKCAFEENGKVEPPNCFDQVLHKNKVTDLKTLIPGYASYTNKHSSKYPYYLKIPHFVNEQYTIQCKCKSNNSQNEYTFELDIQPGES [chain 1 L143A], for which the percent of parent is around 1 % WT.

For the variant chain 1 KSHKCDFTKEKYLLSGEKEVSCEIDANPSDDITFICPNKIDSLCFHTVNISKNINQNKSTMSIQDLLYGSVVYGNTLFISPYVRTNTPFYCFCNLDTVTIQKFLKINRFLKDDDELSEADVMKHLKGGNVSEAQADEYLNKALNRFKKMKDLSKFFNDQADNTTKLNLPKSLNIPNDILNYDVYNSSNNRNDIVVKDEVTNKQIISKRGIMSVFVRSNNNVIKGCDFGNNNKNYFSHPISVAGKVNNKVCKIQGKPGELVGFKCAFEENGKVEPPNCFDQVLHKNKVTDLKTLIPGYASYTNKHSSKYPYYLKIPAFVNEQYTIQCKCKSNNSQNEYTFELDIQPGES [chain 1 H316A], the percent of parent was around 75 % WT.

On to chain 1 KSHKCDFTKEKYLLSGEKEVSCEIDANPSDDITFICPNKIDSLCFHTVNISKNINQNKSTMSIQDLLYGSVVYGNTLFISPYVRTNTPFYCFCNLDTVTIQKFLKINRFLKDDDELSEADVMKHLKGGNVSEAQADEYLNKALNRFKKMKDLSKFFNDQADNTTKLNLPKSLNIPNDILNYDVYNSSNNRNDIVVKDEVTNKQIISKRGIMSVFVRSNNNVIKGCDFGNNNKNYFSHPISVAGKVNNKVCKIQGKPGELVGFKCAFEENGKVEPPNCFDQVLHKNKVTDLKTLIPGYASYTNKHSSKYPYYLKIPHFVNAQYTIQCKCKSNNSQNEYTFELDIQPGES [chain 1 E320A], for which the percent of parent is around 103 % WT.

Another assay covers variants of B2. In words: BLI; mutant at 1000 nM, 500 nM, and 250 nM; binding to immobilised WT Pf41; parent: 100; read off a plot. (Biolayer interferometry detects binding as a change in optical thickness at a sensor tip.)
On to chain 1 NLTCDFNDVYKLEFHPNQQTSVTKLCNLTPNVLEKVTIKCGSDKLNYNLYPPTCFEEVYASRNMMHLKKIKEFVIGSSMFMRRSLTPNKINEVSFRIPPNMMPEKPIYCFCENKKTITINGSNGNPSSKKDIINRGIVEIIIPSLNEKVKGCDFTTSESTIFSKGYSINEISNKSSNNQQDIVCTVKAHANDLIGFKCPSNYSVEPADCFVSAFNLSGKNENLENKLKLTNIIMDHYNNTFYSRLPSLISDNWKFFCVCSKDNEKKLVFTVEASISS [chain 1 H207A], for which the percent of parent is around 116 % WT.

On to chain 1 NLTCDFNDVYKLEFHPNQQTSVTKLCNLTPNVLEKVTIKCGSDKLNYNLYPPTCFEEVYASRNMMHLKKIKEFVIGSSMFMRRSLTPNKINEVSFAIPPNMMPEKPIYCFCENKKTITINGSNGNPSSKKDIINRGIVEIIIPSLNEKVKGCDFTTSESTIFSKGYSINEISNKSSNNQQDIVCTVKAHANDLIGFKCPSNYSVEPHDCFVSAFNLSGKNENLENKLKLTNIIMDHYNNTFYSRLPSLISDNWKFFCVCSKDNEKKLVFTVEASISS [chain 1 R96A], for which the percent of parent is around 55 % WT.

For the variant chain 1 NLTCDFNDVYKLEFHPNQQTSVTKLCNLTPNVLEKVTIKCGSDKLNYNLYPPTCFEEVYASRNMMHLKKIKEFVIGSSMFMRRSLTPNKINEVSFEIPPNMMPEKPIYCFCENKKTITINGSNGNPSSKKDIINRGIVEIIIPSLNEKVKGCDFTTSESTIFSKGYSINEISNKSSNNQQDIVCTVKAHANDLIGFKCPSNYSVEPHDCFVSAFNLSGKNENLENKLKLTNIIMDHYNNTFYSRLPSLISDNWKFFCVCSKDNEKKLVFTVEASISS [chain 1 R96E], the percent of parent is around 3 % WT.

As to chain 1 NLTCDFNDVYKLEFHPNQQTSVTKLCNLTPNVLEKVTIKCGSDKLNYNLYPPTCFEEVYASRNMMHLKKIKEFVIGSSMFMRRSLTPNKINEVSFRIPPNMMPEKPIYCFCENKKTITINGSNGNPSSKKDIINRGIVEIIIPSLNEKVKGCDFTTSESTIFSKGYSINEISNKSSNNQQDIVCTVKAHANDLIGFKCPSNYSVEPHDCFVSAFNLSGKNENLENKLKLTNIIMDHYNNTFYSRLPSLISDNWKFACVCSKDNEKKLVFTVEASISS [chain 1 F256A], the percent of parent is around 4 % WT.

For the variant chain 1 NLTCDFNDVYKLEFHPNQQTSVTKLCNLTPNVLEKVTIKCGSDKLNYNLYPPTCFEEVYASRNMMHLKKIKEFVIGSSMFMRRSLTPNKINEVSFRIPPNMMPEKPIYCFCENKKTITINGSNGNPSSKKDIINRGIVEIIIPSLNEKVKGCDFTTSESTIFSKGYSINEISNKSSNNQQDIVCTVKAHANDLIGFKCPSNYSVEPHDCFVSAFNLSGKNENLENKLKLTNIIMDHANNTFYSRLPSLISDNWKFFCVCSKDNEKKLVFTVEASISS [chain 1 Y237A], the percent of parent is around 2 % WT.

Consider chain 1 NLTCDFNDVYKLEFHPNQQTSVTKLCNLTPNVLEKVTIKCGSDKLNYNLYPPTCFEEVYASRNMMHLKKIKEFVIGSSMFMARSLTPNKINEVSFRIPPNMMPEKPIYCFCENKKTITINGSNGNPSSKKDIINRGIVEIIIPSLNEKVKGCDFTTSESTIFSKGYSINEISNKSSNNQQDIVCTVKAHANDLIGFKCPSNYSVEPHDCFVSAFNLSGKNENLENKLKLTNIIMDHYNNTFYSRLPSLISDNWKFFCVCSKDNEKKLVFTVEASISS [chain 1 R82A], for which the percent of parent is around 9 % WT.

As to chain 1 NLTCDFNDVYKLEFHPNQQTSVTKLCNLTPNVLEKVTIKCGSDKLNYNLYPPTCFEEVYASRNMMHLKKIKEFVIGSSMFMERSLTPNKINEVSFRIPPNMMPEKPIYCFCENKKTITINGSNGNPSSKKDIINRGIVEIIIPSLNEKVKGCDFTTSESTIFSKGYSINEISNKSSNNQQDIVCTVKAHANDLIGFKCPSNYSVEPHDCFVSAFNLSGKNENLENKLKLTNIIMDHYNNTFYSRLPSLISDNWKFFCVCSKDNEKKLVFTVEASISS [chain 1 R82E], the percent of parent is around 0 % WT.

For the variant chain 1 NLTCDFNDVYKLEFHPNQQTSVTKLCNLTPNVLEKVTIKCGSDKLNYNLYPPTCFEEVYASRNMMHLKKIKEFVIGSSMFMRASLTPNKINEVSFRIPPNMMPEKPIYCFCENKKTITINGSNGNPSSKKDIINRGIVEIIIPSLNEKVKGCDFTTSESTIFSKGYSINEISNKSSNNQQDIVCTVKAHANDLIGFKCPSNYSVEPHDCFVSAFNLSGKNENLENKLKLTNIIMDHYNNTFYSRLPSLISDNWKFFCVCSKDNEKKLVFTVEASISS [chain 1 R83A], the percent of parent was around 38 % WT.

chain 1 NLTCDFNDVYKLEFHPNQQTSVTKLCNLTPNVLEKVTIKCGSDKLNYNLYPPTCFEEVYASRNMMHLKKIKEFVIGSSMFMRRSLTPNKINEVSFRIPPNMMPEKPIYCFCENKKTITINGSNGNPSSKKDIINRGIVEIIIPSLNEKVKGCDFTTSESTIFSKGYSINEISNKSSNNQQDIVCTVKAHANDLIGFKCPSNYSVEPHDCFVSAANLSGKNENLENKLKLTNIIMDHYNNTFYSRLPSLISDNWKFFCVCSKDNEKKLVFTVEASISS [chain 1 F214A]: the percent of parent is around 12 % WT.
